Consider five molecules from US12018066 (TRIAD NATIONAL SECURITY, dated 2024).

Like-named read-outs stand apart in the source and are kept apart here.

Experiment [1] deals with T1, SARS-CoV-2 spike protein receptor binding domain (RBD2) (SARS-CoV-2, UniProt P0DTC2 319-537). Nature of the experiment: SPR sandwich binning, ligand H01.
Experiment [2] concerns the target T1, SARS-CoV-2 spike protein receptor …. Kind of experiment: SPR sandwich binning, ligand S01.
Experiment [3] has the same target. Nature of the experiment: SPR. A general note: Surface plasmon resonance follows binding to a sensor surface in real time, without labels.
Experiment [4] shares this target. Nature of the experiment: SPR sandwich binning, ligand CR3022.
Experiment [5] has the same target. Nature of the experiment: SPR sandwich binning, ligand G07.
Experiment [6] shares this target. Nature of the experiment: SPR sandwich binning, ligand E08.
The target is the same in experiment [7]. Kind of experiment: SPR sandwich binning, ligand E01.
In experiment [8] the target is SARS-CoV-2 spike protein on whole SARS-CoV-2 virus (SARS-CoV-2, UniProt P0DTC2 14-1273). Kind of experiment: cell-based or functional assay.
In experiment [9] the target is T1, SARS-CoV-2 spike protein receptor …. Kind of experiment: SPR, immobilized antibody, RBD injected, 1:1 fit.
The target is the same in experiment [10]. Kind of experiment: SPR sandwich binning, ligand F07.
For experiment [11] the target is unchanged. Kind of experiment: SPR sandwich binning, ligand Anti-His.
The target is the same in experiment [12]. Kind of experiment: SPR sandwich binning, ligand B04.
The target is the same in experiment [13].
The target is the same in experiment [14]. Nature of the experiment: SPR sandwich binning, ligand H05.
For experiment [15] the target is unchanged. Nature of the experiment: flow cytometry, yeast-displayed scFv. On the technique in general: Flow cytometry measures light scatter and fluorescence of single cells or particles in a stream.
Experiment [16] shares this target. The source holds these as a separate data set.
Experiment [17] has the same target. Kind of experiment: flow cytometry, yeast-displayed scFv, titration of biotinylated antigen.
Experiment [18] deals with SARS-CoV spike protein receptor binding domain (RBD1) (SARS-CoV, UniProt P59594 306-527). Kind of experiment: flow cytometry (yeast scFv) / minibody ELISA, FIGS. 7A-C.
Experiment [19] concerns the target T1, SARS-CoV-2 spike protein receptor …. Kind of experiment: SPR, minibodies.

B1: E08 IgG1 (antibody, V domains shown)
VH: QVQLVQSGAEVKKPGSSVKVSCKASGGTFSSYAISWVRQAPGQGLEWMGGIIPIFGTANYAQKFQGRVTITADESTSTAYMELSSLRSEDTAVYYCARASGRWLQFWHYYGMDVWGQGTTVTVSS
VL: SYVLTQPPSVSVAPGKTARITCGGNNIGWKSVHWYQQKPGQAPVLVVYDDSDRPSGIPERFSGSNSGNTATLTISRVEAGDEADYYCQVWDSSSDLVVFGGGTKLTVL
In general, Kd refers to a measure of binding affinity in units of concentration. Higher therefore signals weaker binding. Regarding B1, the “normalized analyte binding to RBD2 held by the immobilized ligand” value (from here on “normalized analyte binding to RBD2 held”) in experiment [1] is 0.13; in experiment [2], 1.85; in experiment [4], -0.08; in experiment [5] it was 2.62; in [6], -0.09; in experiment [7], 2.15. Further, the “normalized analyte binding to RBD2 held” value is 1.32 in experiment [10], 1.81 in experiment [11], 2.12 in [12] and -0.11 in experiment [14]. The values for the Kd in experiment [3], in experiment [9] and in experiment [13] were 27 nM, 27 nM and 26 nM, respectively. Moreover, in [8], the “NT50 (nM), half neutralization titer” value was determined as 52.9 nM. The “Nmax (%), neutralization maximum” value in [8] was determined as 70.4%.

B2: E08 scFv (scFv)
scFv: SYVLTQPPSVSVAPGKTARITCGGNNIGWKSVHWYQQKPGQAPVLVVYDDSDRPSGIPERFSGSNSGNTATLTISRVEAGDEADYYCQVWDSSSDLVVFGGGTKLTVLSGGSTITSYNVYYTKLSSSGTQVQLVQSGAEVKKPGSSVKVSCKASGGTFSSYAISWVRQAPGQGLEWMGGIIPIFGTANYAQKFQGRVTITADESTSTAYMELSSLRSEDTAVYYCARASGRWLQFWHYYGMDVWGQGTTVTVSS
In the case of B2, the Kd in experiment [15], in [16] and in experiment [17] was 13.9 nM throughout. The binding result in experiment [18] is reported as “binds”.

B3: E08 minibody (scFv-Fc) (Fc fusion)
chain: B2 scFv
For B3, the Kd in experiment [3] worked out at 3.6 nM; in [19], 4 nM; in experiment [9], 3.6 nM.

B4: H01 IgG1 (antibody, V domains shown)
VH: QVTLKESGPVLVKPTETLTLTCTVSGFSLSNARMGVSWIRQPPGKALEWLAHIFSNGEKSYSTSLKSRLTISKDTSKSQVVLTMTNMDPVDTATYYCARTLDYYDSSGYLVGGAFDIWGQGTMVTVSS
VL: QPGLTQPPSVSLAPGQTARITCGGNNIGSKSVHWYQQKPGQAPVLVVYDDSDRPSGIPERFSGSNAGNTATLTISRVEAGDEADYYCQVWDSRSDQYVFGTRTKLTVL
notes: also called H1
Turning to B4, the “normalized analyte binding to RBD2 held” value is -0.03 in experiment [1]; -0.11 in experiment [2]; -0.05 in experiment [4]; 1.28 in experiment [5]; -0.03 in experiment [6]; 0.41 in [7]. The “normalized analyte binding to RBD2 held” value is 0.03 in experiment [10], 1.75 in experiment [11], 0.77 in experiment [12] and -0.05 in experiment [14]. Besides, the Kd in [3] was determined as 800 nM; in experiment [9], 800 nM; in [13], 721 nM. Further, in experiment [8], the “NT50 (nM), half neutralization titer” value is 69.6 nM. Besides, the “Nmax (%), neutralization maximum” value in experiment [8] was determined as 87.7%.

B5: R26 minibody (scFv-Fc) (Fc fusion)
chain: SYELTQPPSVSVAPGQTATITCGGKNIESKSVHWYQQKPGQAPVLVVSDDTDRASGIPERFSGSNSGGAATLTISRVEAGDEADYYCQVWDSPSDHYVFGPGTKLTVLSGGSTITSYNVYYTKLSSSGTQVQLVESGGGVVQPGRSLRLSCAASGFTFSSYAMHWVRQAPGKGLEWVAVISYDGSNKYYADSVKGRFTISRDKAKNTLYLQMNSLRGEDTAVYYCARELSYYDSSGYLRGDWYFDLWGRGTLVTVSS
As for B5, the Kd in experiment [19] was 900 nM; in [9] it was 888 nM.
